Paper PMC12095637
Where two headings read alike, the source gives them in different places.

Experiments:
Experiment in all cases: SEC-MALS
[1] = target: DdMICU (Dictyostelium discoideum MICU, residues 105–461) (Dictyostelium discoideum)
[2] = target: DdMICU (Dictyostelium discoideum MICU, residues 105–461) (Dictyostelium discoideum); remark: listed apart in the source
[3] = target: DdMICU (Dictyostelium discoideum MICU, residues 105–461) (Dictyostelium discoideum); remark: listed apart in the source

stoichiometry N [1]: 4 | stoichiometry N [2]: 2 | stoichiometry N [3]: 2
Substance: DdMICU (Dictyostelium discoideum MICU, residues 105–461) (domain or fragment)
